In PMC13395437, “A single DNA methylation site regulates cell fate during Clostridioides difficile sporulation”:

Assays:
[1] = biological target: T1, Spo0A DNA-binding domain (Spo0A145-247-His6) (UniProt P52938); assay: EMSA; details: FP: 1 nM dsDNA, 50 mM Tris-HCl pH 8, 100 mM KCl, 2.5 mM MgCl2, 0.2 mM DTT, 10% glycerol, 2 µg salmon sperm DNA, 10 min, RT; EMSA: 20 fmol DNA, 10 mM Tris-HCl …
T1 sequence: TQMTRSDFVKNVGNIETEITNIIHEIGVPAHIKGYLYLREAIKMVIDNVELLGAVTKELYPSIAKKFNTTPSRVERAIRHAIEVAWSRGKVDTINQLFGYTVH

[2] = biological target: T2, Spo0A DNA-binding domain (Spo0A145-247-His6) (UniProt P52938 145-247); assay: fluorescence polarization; FP: 1 nM dsDNA, 50 mM Tris-HCl pH 8, 100 mM KCl, 2.5 mM MgCl2, 0.2 mM DTT, 10% glycerol, 2 µg salmon sperm DNA, 10 min, RT; EMSA: 20 fmol DNA, 10 mM Tris-HCl pH 7.6, 1 mM EDTA, 50 mM NaCl, 1 mM DTT, 5% glycerol, 30 min, 37 C; details: protein: recombinant; tags: C-terminal His6; label: 6FAM on strand 1 (5' primer); blunt
T2 sequence: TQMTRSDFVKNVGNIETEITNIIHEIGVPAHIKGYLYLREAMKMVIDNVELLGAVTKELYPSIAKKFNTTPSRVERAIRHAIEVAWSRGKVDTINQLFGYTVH

Molecule: CCTCCTCTTTTGTTTATATTAAGAATTGTAACAAAGAGGAGTAATTTTTTTTGTCATAATCGGTTTTAAAAATCAAAAAATATTAATACATTTTTTTTGACTTTTGACATATTAAGCCTTCCAAATTATCGTATTCACTTACGGTTATTTCTTCTATTTCTAATTTTTCCATTATTATATTCAATATTTTTACACCAGCAGTTATAATATCCGCACGTTTTTCTTGTAGCCCTTTTAAGTTCTTTTTATCAC (double strand) [WT PspoIIE EMSA fragment]
- binding [1]: binds

Molecule: CCTCCTCTTTTGTTTATATTAAGAATTGTAACAAAGAGGAGTAATTTTATTTGTCATAATCGGTTTTAAAAATCAAAAAATATTAATACATTTTTTTTGACTTTTGACATATTAAGCCTTCCAAATTATCGTATTCACTTACGGTTATTTCTTCTATTTCTAATTTTTCCATTATTATATTCAATATTTTTACACCAGCAGTTATAATATCCGCACGTTTTTCTTGTAGCCCTTTTAAGTTCTTTTTATCAC (double strand) [Me3* PspoIIE EMSA fragment]
- binding [1]: binds

B1: Me3* PspoIIE FP probe (dsDNA)
DNA 1: AAAACCGATTATGACAAATAAAATTACTCC
DNA 2: GGAGTAATTTTATTTGTCATAATCGGTTTT
- binding result [2]: binds

B2: WT PspoIIE FP probe (dsDNA)
DNA 1: AAAACCGATTATGACAAAAAAAATTACTCC
DNA 2: GGAGTAATTTTTTTTGTCATAATCGGTTTT
- binding result [2]: binds
